From PMC7181697, “Molecular basis for assembly of the shieldin complex and its implications for NHEJ” (Nature Communications, 2020)
One block for each binder: values may come before it.

Tests used:
Conditions in all cases: both partners purified
[1] = target: T1, REV7^E35A-SHLD3(1–82)-REV7^K129A (human, UniProt Q9UI95 1-211; Q6ZNX1 1-82; Q9UI95 1-211, E35A | K129A); assay: ITC; ITC200, 25 °C, 20 mM Tris pH 8.0, 150 mM NaCl, 1% glycerol, 1 mM TCEP; one set of sites model
T1 construct: REV7 (MAD2B, MAD2L2), human, full length; the C-REV7 of the dimer; SHLD3, human, residues 1-82; cloned without His-tag; the O-REV7 of the dimer; also called E35A-1–82 + K129A; reconstituted conformational dimer; source: reconstituted from purified REV7^E35A-SHLD3(1–82) and purified REV7^K129A (both E. coli BL21(DE3)); copies: + +

REV7^K129A = target: T2, REV7^K129A (human, UniProt Q9UI95 1-211, K129A); assay: as above
T2 construct: REV7 (MAD2B, MAD2L2), human, full length; also called O-REV7 (as used in the ITC and SEC experiments); source: E. coli BL21(DE3), purified (Ni-IDA, SEC); alone or co-expressed with SHLD3(1-82)

MBP-REV7^K129A = target: T3, MBP-REV7^K129A (human, UniProt Q9UI95 1-211, K129A); assay: SEC; Superdex 200 Increase 10/300 GL, 20 mM Tris/HCl pH 8.0, 150 mM NaCl, 1% glycerol, 1 mM TCEP; proteins mixed and incubated 10 min on ice; 0.5 ml fractions on SDS-PAGE, Coomassie
T3 construct: REV7 (MAD2B, MAD2L2), human; The cloning of this construct is not described in the methods; also called O-REV7; source: E. coli BL21(DE3), purified (Ni-IDA, SEC)

[2] = target: T4, REV7 (full length, wild type) (human, UniProt Q9UI95 1-211); assay: ITC; ITC200, 25 °C, 20 mM Tris pH 8.0, 150 mM NaCl, 1% glycerol, 1 mM TCEP; one set of sites model
T4 construct: REV7 (MAD2B, MAD2L2), human, full length; Two copies (closed C-REV7 and open O-REV7) stand in the crystal structure 6KTO; also called REV7^WT; MAD2B; source: E. coli BL21(DE3), purified (Ni-IDA, SEC); alone or co-expressed with SHLD3 and SHLD2 truncations

REV7^Y63A = target: T5, REV7^Y63A (human, UniProt Q9UI95 1-211, Y63A); assay: as above
T5 construct: REV7 (MAD2B, MAD2L2), human, full length; source: E. coli BL21(DE3), purified (Ni-IDA, SEC); alone or co-expressed with SHLD3(1-82)

REV7^W171A = target: T6, REV7^W171A (human, UniProt Q9UI95 1-211, W171A); assay: as above
T6 construct: REV7 (MAD2B, MAD2L2), human, full length; source: E. coli BL21(DE3), purified (Ni-IDA, SEC); alone or co-expressed with SHLD3(1-82)

[3] = target: T1, REV7^E35A-SHLD3(1–82)-REV7^K129A; assay: SEC; Superdex 200 Increase 10/300 GL, 20 mM Tris/HCl pH 8.0, 150 mM NaCl, 1% glycerol, 1 mM TCEP; proteins mixed and incubated 10 min on ice; 0.5 ml fractions on SDS-PAGE, Coomassie
[4] = target: T7, REV7^K44A-SHLD3(1–82)-REV7^K129A (human, UniProt Q9UI95 1-211; Q6ZNX1 1-82; Q9UI95 1-211, K44A | K129A); assay: as above
T7 construct: REV7 (MAD2B, MAD2L2), human, full length; the C-REV7 of the dimer; SHLD3, human, residues 1-82; cloned without His-tag; the O-REV7 of the dimer; also called K44A-1–82 + K129A; reconstituted conformational dimer; source: reconstituted from purified REV7^K44A-SHLD3(1–82) and purified REV7^K129A (both E. coli BL21(DE3)); copies: + +

[5] = target: T8, REV7^K44A-SHLD3(1–82)^F38A (human, UniProt Q9UI95 1-211; Q6ZNX1 1-82, K44A | F38A); assay: ITC; ITC200, 25 °C, 20 mM Tris pH 8.0, 150 mM NaCl, 1% glycerol, 1 mM TCEP; one set of sites model
T8 construct: REV7 (MAD2B, MAD2L2), human, full length; SHLD3, human, residues 1-82; cloned without His-tag; source: E. coli BL21(DE3), co-expressed (pETduet), purified (Ni-IDA, SEC)

REV7^K44A-SHLD3(45–82) = target: T9, REV7^K44A-SHLD3(45–82) (human, UniProt Q9UI95 1-211; Q6ZNX1 45-82, K44A); assay: as above
T9 construct: REV7 (MAD2B, MAD2L2), human, full length; SHLD3, human, residues 45-82; cloned without His-tag; source: E. coli BL21(DE3), co-expressed (pETduet), purified (Ni-IDA, SEC)

[6] = target: T10, REV7^K44A-SHLD3(1–82)^FIPWFP/AIAAAA (human, UniProt Q9UI95 1-211; Q6ZNX1 1-82, K44A | FIPWFP/AIAAAA); assay: as above
T10 construct: REV7 (MAD2B, MAD2L2), human, full length; SHLD3, human, residues 1-82; the FXPWFP motif stands at 38-43; cloned without His-tag; also called REV7^K44A-SHLD3(1–82)^5A; source: E. coli BL21(DE3), co-expressed (pETduet), purified (Ni-IDA, SEC)
T10 sequence (Q9UI95 whole entry K44A, the tested form may be a part, one chain of several): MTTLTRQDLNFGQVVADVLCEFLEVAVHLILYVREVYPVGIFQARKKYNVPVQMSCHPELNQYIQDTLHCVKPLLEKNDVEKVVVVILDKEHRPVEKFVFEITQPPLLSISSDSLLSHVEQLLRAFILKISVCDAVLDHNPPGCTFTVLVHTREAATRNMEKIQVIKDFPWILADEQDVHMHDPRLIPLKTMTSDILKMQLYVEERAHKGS

T1 sequence (Q9UI95 whole entry E35A, chain 1 of 2, the tested form may be a part): as the sequence (Q9UI95 whole entry K44A, the tested form may be a part, one chain of several) above, with E35A, A44K counted along it
T1 sequence (Q9UI95 whole entry K129A, chain 3 of 2, the tested form may be a part): as the sequence (Q9UI95 whole entry K44A, the tested form may be a part, one chain of several) above, with A44K, K129A counted along it
T4 sequence (Q9UI95 whole entry, the tested form may be a part): as the sequence (Q9UI95 whole entry K44A, the tested form may be a part, one chain of several) above, with A44K counted along it
T8 sequence (Q9UI95 whole entry K44A, the tested form may be a part, one chain of several): as the sequence (Q9UI95 whole entry K44A, the tested form may be a part, one chain of several) above
T9 sequence (Q9UI95 whole entry K44A, the tested form may be a part, one chain of several): as above
T7 sequence (Q9UI95 whole entry K44A, chain 1 of 2, the tested form may be a part): as the sequence (Q9UI95 whole entry K44A, the tested form may be a part, one chain of several) above
T7 sequence (Q9UI95 whole entry K129A, chain 3 of 2, the tested form may be a part): as the sequence (Q9UI95 whole entry K44A, the tested form may be a part, one chain of several) above, with A44K, K129A counted along it
T2 sequence (Q9UI95 whole entry K129A): as the sequence (Q9UI95 whole entry K44A, the tested form may be a part, one chain of several) above, with A44K, K129A counted along it
T3 sequence (Q9UI95 whole entry K129A): as the sequence (Q9UI95 whole entry K44A, the tested form may be a part, one chain of several) above, with A44K, K129A counted along it
T5 sequence (Q9UI95 whole entry Y63A): as the sequence (Q9UI95 whole entry K44A, the tested form may be a part, one chain of several) above, with A44K, Y63A counted along it
T6 sequence (Q9UI95 whole entry W171A): as the sequence (Q9UI95 whole entry K44A, the tested form may be a part, one chain of several) above, with A44K, W171A counted along it

B1: REV3(1847-1906) (domain or fragment, human, UniProt O60673 1847-1906, looked up)
chain: MLTPTPDSSPRSTSSPSQSKNGSFTPRTANILKPLMSPPSREEIMATLLDHDLSETIYQE
notes: amplified from cDNA of Jurkat cells; The methods name two vectors for REV3 truncations (His6-MBP and C-terminal His6); also called RBM1 of REV3; source: E. coli BL21(DE3), purified (Ni-IDA, SEC)
Kd [1]: 46 nM | binding result (REV7^K129A): binds

B2: MBP-REV3(1847-1906) (domain or fragment, human, UniProt O60673 1847-1906, looked up)
chain: MLTPTPDSSPRSTSSPSQSKNGSFTPRTANILKPLMSPPSREEIMATLLDHDLSETIYQE
notes: Modified pET28a(+) with His6-MBP tag; source: E. coli BL21(DE3), purified (Ni-IDA, SEC)
binding result (MBP-REV7^K129A): binds

B3: SHLD3(1–82) with C-terminal His6-tag (domain or fragment, human, UniProt Q6ZNX1 1-82, looked up)
chain: MTTEVILHYRPCESDPTQLPKIAEKAIQDFPTRPLSRFIPWFPYDGSKLPLRPKRSPPVISEEAAEDVKQYLTISEHDAKSH
notes: SHLD3, human, residues 1-82; SHLD3(1-82) expressed alone for biochemical studies (pET28a(+)); source: E. coli BL21(DE3), purified (Ni-IDA, SEC)
Kd [2]: ~130 nM | Kd (REV7^Y63A): ~200 nM | Kd (REV7^W171A): ~200 nM

Further lines, results first:

binding result [3]: binds | binding result [4]: binds
B4: MBP-SHLD2(1–60) (domain or fragment, human, UniProt Q86V20 1-60, looked up)
chain: MSGGSQVHIFWGAPIAPLKITVSEDTASLMSVADPWKKIQLLYSQHSLYLKDEKQHKNLE
notes: SHLD2, human, residues 1-60; Modified pET28a(+) with His6-MBP tag; also called MBP-1–60; source: E. coli BL21(DE3), purified (Ni-IDA, SEC); not shown: MBP, N-terminal, kept

Kd [5]: 6500 nM | Kd (REV7^K44A-SHLD3(45–82)): 1400 nM | Kd [6]: 1100 nM
B5: cREV1 CTD (chimeric REV1 CTD: POL κ RIR fused to the N-terminus of REV1 CTD) (other, UniProt Q9UBT6 562-577, looked up)
chain: SHKKSFFDKKRSERKWGLSSLQSDPAGCVRPPAPNLAGAVEFNDVKTLLREWITTISDPMEEDILQVVKYCTDLIEEKDLEKLDLVIKYMKRLMQQSVESVWNMAFDFILDNVQVVLQQTYGSTLKVT
notes: source: E. coli BL21(DE3), purified (Ni-IDA, SEC)
